Data as given in patent publication US12303551B2, “Cellular immunotherapy compositions and uses thereof” (CERO THERPEUTICS HOLDINGS, INC., priority 2018, dated 2025).

How the values were obtained:
[1] = tested on: HCC827 adenocarcinoma cells; assay: HCC827 xenograft in NSG mice with osimertinib, bioluminescence imaging and immunofluorescence; format: in vivo
Procedure: Growth of HCC827/luceriferase^+ cells in NSG mice upon adoptive transfer of purified hCER122 modified CD4+ T cells or hCER122 modified CD+ T cells with concomitant targeted inhibitor therapy was measured by bioluminescence imaging. Data represents mean values (n=5 mice/treatment group).
Tumor specimens were stained with anti-EGFR (tumor antigen), anti-CD4, anti-PD1, and DAPI counter-stain (left image).
CD3+ or CD4+ T cells were purified from PBMCs, activated, and transduced with lentiviral vector comprising hCER122 nucleic acid. hCER122 is a human CER122 construct comprising a Tim4 binding domain, a Tim4 transmembrane domain, TLR2 engulfment signaling domain, and Dap12 engulfment signaling domain and comprises an amino acid sequence of SEQ ID NO:179. Transduced T cells were expanded. hCER122 modified CD3+ T cells (2.5×10^6 or 5×10^6) or hCER122 modified CD4+ T cells (2.5×10^6 or 5×10^6) were infused into NSG mice engrafted with HCC827 adenocarcinoma cells (2 million/mouse). HCC827 xenograft mice also received 1 mg/kg osimertinib post-engraftment. […] Microscopy images of immunofluorescence stained tumor cells from HCC827 xenograft model at day 16. Tumor specimens were stained with anti-EGFR (tumor antigen), anti-CD4, anti-PD1, and DAPI counter-stain.

SCC152 cells = assay: Magnitude breadth analysis of phagocytosis by CER type (pHrodo red / CELLTRACE violet microscopy); format: cell-based; conditions: CD4+ T cells, pHrodo red stained SCC152
Procedure: Top image is an enlargement of a cell in the lower left image showing a SCC152 cell engulfed by CER126-transduced CD4+ T cell. […] White arrow indicates CD8+ T cell transduced with E7-specific TCR and that is pHrodo Red negative (lower left panel of FIG. 60B). Software rendition of phagocytosis (lower right panel of FIG. 60B).
Various CER-modified CD4+ T cells were also evaluated for breadth of response to determine whether a particular CER confers a broad phagocytic response of low magnitude (e.g., 10% engulfment in 90% of cells) or a less frequent but strong phagocytic response (e.g., 90% engulfment in 10% of cells) in the host cells. CD8+ T cells were transduced with HPV16 E7 specific TCR as described in Example 1. CD4+ T cells were transduced with lentiviral vectors comprising a CER21, CER27, CER104, CER116, or CER117 nucleic acid. Mock-transduced (vector alone) CD4+ T cell were used as control. CD4+/CER+ and CD8+/E7 TCR+ T cells were stained with CELLTRACE violet. HPV16 E7+ head and neck squamous cell carcinoma cells (SCC152) were stained with pHrodo red. HPV16 E7 TCR transduced CD8+ T cells and selected CER transduced CD4+ T cells were mixed at a 1:1 ratio and co-cultured with SCC152 cells at a 1:1 ratio for 8 hours. Phagocytosis of target SCC152 cells by CER-transduced CD4+ T cells was analyzed by fluorescence microscopy. […] The horizontal axis represents the % area of CER-transduced CD4+ T cells having engulfment or % area of the CER-transduced CD4+ T cells taken up by target SCC152 cells. This measure was rarely above 40% across CER types tested. The vertical axis represents the proportion of CER-transduced CD4+ T cells that were phagocytic. For CER104, about 20% of CER104-transduced CD4+ T cells have more than 10% engulfment. For CER117-transduced CD4+ T cells, less than 10% have more than 10% engulfment.

[2] = tested on: HPV+ SCC152/luceriferase+ cells; assay: SCC152/luciferase xenograft in NSG mice, bioluminescence imaging; format: in vivo; conditions: E7 TCR CD8+ T cells + mock transduced CD4+ T cells; compared to untreated controls
Procedure: HPV+ SCC152 engrafted NSG mice were treated with HPV E7 TCR modified CD8+ T cells+CD4+ T cells (mock transduced), HPV E7 TCR modified CD8+ T cells+hCER104 modified CD4+ T cells, or untreated. FIG. 74B is a graph of mean values of bioluminescence signal intensities obtained for treatment group.
HPV+ SCC152/luceriferase^+ cells were engrafted in NSG mice. Once tumors were established, mice were treated with HPV E7 specific TCR (SEQ ID NO:84) modified CD8+ T cells+mock transduced CD4+ T cells, HPV E7 specific TCR modified CD8+ T cells+hCER104 (SEQ ID NO:176) modified CD4+ T cells, or untreated (n=5 per treatment group). HPV E7 CD8+ T cells and hCER104 CD4+ T cells were administered at a 1:1 ratio. Tumor volume was measured over time by bioluminescence imaging (see, FIGS. 74A-74B).

B1: hCER122: human CER122 construct: Tim4 binding domain, Tim4 transmembrane domain, TLR2 and Dap12 engulfment signaling domains; SEQ ID NO:179 (protein)
chain: ETVVTEVLGHRVTLPCLYSSWSHNSNSMCWGKDQCPYSGCKEALIRTDGMRVTSRKSAKYRLQGTIPRGDVSLTILNPSESDSGVYCCRIEVPGWFNDVKINVRLNLQRASTTTHRTATTTTRRTTTTSPTTTRQMTTTPAALPTTVVTTPDLTTGTPLQMTTIAVFTTANTCLSLTPSTLPEEATGLLTPEPSKEGPILTAESETVLPSDSWSSVESTSADTVLLTSKESKVWDLPSTSHVSMWKTSDSVSSPQPGASDTAVPEQNKTTKTGQMDGIPMSMKNEMPISQLLMIIAPSLGFVLFALFVAFLHRFHGLWYMKMMWAWLQAKRKPRKAPSRNICYDAFVSYSERDAYWVENLMVQELENFNPPFKLCLHKRDFIPGKWIIDNIIDSIEKSHKTVFVLSENFVKSEWCKYELDFSHFRLFDENNDAAILILLEPIEKKAIPQRFCKLRKIMNTKTYLEWPMDEAQREGFWVNLRAAIKSYFLGRLVPRGRGAAEAATRKQRITETESPYQELQGQRSDVYSDLNTQRPYYK
modifications: hCER122
**Q.** B1 was tested. Which “anti-tumor response (bioluminescence)” value ([1]; CER-modified CD3+ and CD4+ T cells plus 1 mg/kg osimertinib, compared to osimertinib alone) did it give?
**A.** The value was “enhanced anti-tumor responses”.

**Q.** And the “tumor elimination (bioluminescence)” value ([1]; CER-modified CD4+ T cells plus 1 mg/kg osimertinib)?
**A.** Its value is “eliminated tumors”.

**Q.** What about the “T cell infiltration of tumor, immunofluorescence staining” value ([1]; day 16, anti-EGFR, anti-CD4, anti-PD1, DAPI) of the same molecule?
**A.** Its value is “infiltration of PD1+CD4+ T cells (functionally active) into tumor stroma”.

B2: CER126: Chimeric engulfment receptor: Tim4 binding, Tim4 transmembrane, TLR2 and TRAF2 signaling; SEQ ID NO: 169 (protein)
chain: MSKGLLLLWLVTELWWLYLTPAASEDTIIGFLGQPVTLPCHYLSWSQSRNSMCWGKGSCPNSKCNAELLRTDGTRIISRKSTKYTLLGKVQFGEVSLTISNTNRGDSGVYCCRIEVPGWFNDVKKNVRLELRRATTTKKPTTTTRPTTTPYVTTTTPELLPTTVMTTSVLPTTTPPQTLATTAFSTAVTTCPSTTPGSFSQETTKGSAFTTESETLPASNHSQRSMMTISTDIAVLRPTGSNPGILPSTSQLTTQKTTLTTSESLQKTTKSHQINSRQTILIIACCVGFVLMVLLFLAFLHRFHGLWYMKMMWAWLQAKRKPRKAPSRNICYDAFVSYSERDAYWVENLMVQELENFNPPFKLCLHKRDFIPGKWIIDNIIDSIEKSHKTVFVLSENFVKSEWCKYELDFSHFRLFDENNDAAILILLEPIEKKAIPQRFCKLRKIMNTKTYLEWPMDEAQREGFWVNLRAAIKSMAAASVTPPGSLELLQPGFSKTLLGTKLEAKYLCSACRNVLRRPFQAQCGHRYCSFCLASILSSGPQNCAACVHEGIYEEGISILESSSAFPDNAARREVESLPAVCPSDGCTWKGTLKEYESCHEGRCPLMLTECPACKGLVRLGEKERHLEHECPERSLSCRHCRAPCCGADVKAHHEVCPKFPLTCDGCGKKKIPREKFQDHVKTCGKCRVPCRFHAIGCLETVEGEKQQEHEVQWLREHLAMLLSSVLEAKPLLGDQSHAGSELLQRCESLEKKTATFENIVCVLNREVERVAMTAEAC
modifications: CER126, amino acids 1-22 are signal peptide
**Q.** B2 was tested. Which “engulfment of SCC152 target cells seen in fluorescent micrographs” value (SCC152 cells) did it give?
**A.** Its value is “engulfed”.

B3: HPV E7 specific TCR: HPV16 E7 specific TCR (see WO2015/184228), TCRβ and TCRα chains joined by P2A; SEQ ID NO:84; expressed in CD8+ T cells (protein)
chain: MAPGLLCWALLCLLGAGLVDAGVTQSPTHLIKTRGQQVTLRCSPKSGHDTVSWYQQALGQGPQFIFQYYEEEERQRGNFPDRFSGHQFPNYSSELNVNALLLGDSALYLCASSLGWRGGRYNEQFFGPGTRLTVLEDLRNVTPPKVSLFEPSKAEIANKQKATLVCLARGFFPDHVELSWWVNGKEVHSGVCTDPQAYKESNYSYCLSSRLRVSATFWHNPRNHFRCQVQFHGLSEEDKWPEGSPKPVTQNISAEAWGRADCGITSASYQQGVLSATILYEILLGKATLYAVLVSTLVVMAMVKRKNSRAKRSGSGATNFSLLKQAGDVEENPGPMWGVFLLYVSMKMGGTTGQNIDQPTEMTATEGAIVQINCTYQTSGFNGLFWYQQHAGEAPTFLSYNVLDGLEEKGRFSSFLSRSKGYSYLLLKELQMKDSASYLCASVDGNNRLAFGKGNQVVVIPNIQNPEPAVYQLKDPRSQDSTLCLFTDFDSQINVPKTMESGTFITDKCVLDMKAMDSKSNGAIAWSNQTSFTCQDIFKETNATYPSSDVPCDATLTEKSFETDMNLNFQNLLVIVLRILLLKVAGFNLLMTLRLWSS
modifications: HPV16 E7 TCRbeta chain-P2A-TCRalpha chain
notes: HPV16 E7 specific TCR (see WO2015/184228), TCRβ and TCRα chains joined by P2A; expressed in CD8+ T cells
**Q.** How did the “anti-tumor response (bioluminescence)” value [2] turn out when B3 was run?
**A.** The value was “anti-tumor response”.
